According to the supplement of paper PMC10567573:

B1: ZNF207 (parent)
chain: FPSAGQAQAAVQGPVGTDFKPLNS
B2: C19orf51 (parent)
chain: FAPQTGARPSETFARFCKSQESAL

Variants of: B1
Assay: protein stability index of a GFP-peptide fusion (GPS, HEK-293T) (PSI 1-6); higher = more stable
Details: c terminus: a fixed tail appended
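Further: lentivirally expressed fusions sorted by FACS into six bins by GFP to DsRed ratio, PSI derived from sequencing read proportions per bin multiplied by bin number.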

Variant	protein stability index
P14S	3.34
P14N	3.68
P14W	1.97
P14A	3.47
P14H	3.71
P14T	3.3
P14Y	3.44
P14V	3.32
P14Q	3.62
P14L	3.04
P14C	3.04
P14R	3.36
P14G	3.54
P14I	2.98
P14M	3.22
P14D	4.01
P14E	3.92
P14K	2.8
P14F	2.55
K20D	4.07
K20M	3.33
K20N	3.72
K20Q	3.47
K20V	3.25
K20L	3.2
K20R	3.49

Variant	protein stability index
K20T	3.59
K20C	3.85
K20Y	2.79
K20G	3.77
K20P	3.35
K20S	3.34
K20E	3.98
K20I	3.34
K20W	2.59
K20F	2.35
K20A	3.2
K20H	3.49
Q12V	3.36
Q12Y	2.46
S24D	4.02
S24L	3.12
S24F	2.63
S24H	3.73
S24K	3.71
S24E	3.77
S24W	1.89
S24C	3.31
S24R	3.15
S24P	3.54
S24I	2.98
S24Q	3.43

Variant	protein stability index
S24M	3.08
S24G	3.15
S24V	3.19
S24T	3.37
S24N	3.92
S24Y	2.63
S24A	3.36
L22V	3.86
L22Y	3.61
L22C	3.35
L22S	3.95
L22W	2.69
L22M	3.69
L22F	3.61
L22E	3.81
L22R	3.89
L22H	4.15
L22Q	2.92
L22K	3.58
L22G	3.25
L22P	3.63
L22N	4.33
L22I	3.71
L22T	3.64
L22A	3.67
L22D	4.46

Variant	protein stability index
N23C	3.37
N23P	3.03
N23K	3.48
N23H	3.44
N23A	2.88
N23L	2.71
N23F	2.41
N23S	3.25
N23W	2.01
N23D	3.55
N23Q	3.22
N23I	3.15
N23E	3.44
N23T	3.45
N23M	3.17
N23G	3.07
N23R	3.91
N23Y	2.68
N23V	2.93
F19A	3.85
F19Y	3.79
F19Q	3.97
F19L	3.91
F19C	3.49
F19T	3.55
F19N	4.33

Variant	protein stability index
F19M	3.76
F19R	4.11
F19D	4.4
F19H	3.77
F19W	3.41
F19S	4.03
F19V	3.35
F19E	4.06
F19K	4.17
F19G	4.15
F19I	3.64
F19P	3.29
P21M	3.36
P21R	3.77
P21V	2.87
P21F	2.81
P21Q	3.88
P21I	2.87
P21E	3.55
P21A	3.59
P21C	3.29
P21W	2.67
P21G	3.13
P21L	2.51
P21T	3.17
P21H	3.28

Variant	protein stability index
P21Y	3.31
P21S	3.62
P21D	3.81
P21K	3.69
P21N	3.62
G13Q	3.09
G13M	3.38
G13Y	3.12
G13T	3.52
G13I	3.22
G13W	2.53
G13L	3.69
G13S	3.69
G13R	3.5
G13D	3.74
G13F	2.9
G13P	3.57
G13E	3.79
G13K	3.76
G13C	3.4
G13A	3.26
G13N	3.58
G13H	3.37
G13V	3.23
T17E	3.9
T17C	3.12

Variant	protein stability index
T17I	3.03
T17H	3.26
T17Q	4.12
T17A	3.03
T17R	3.19
T17W	2.25
T17P	3.3
T17N	3.65
T17G	3.78
T17V	2.81
T17F	3.05
T17L	2.84
T17S	3.88
T17Y	2.85
T17K	3.27
T17M	3.03
T17D	4.02
D18K	2.99
D18N	3.79
D18Y	2.36
D18R	2.96
D18S	2.81
D18C	2.65
D18L	2.32
D18W	2.51
D18H	2.74

Variant	protein stability index
D18T	3.4
D18F	2.34
D18P	3.11
D18V	2.61
D18M	2.85
D18G	2.8
D18A	3.31
D18Q	3.02
D18E	3.63
D18I	2.67
G16K	3.12
G16L	3.21
G16I	3.27
G16T	3.64
G16P	3.42
G16Y	2.9
G16H	3.52
G16Q	3.93
G16D	3.75
G16E	3.94
G16A	3.13
G16F	3.17
G16R	3.42
G16V	3.25
G16N	3.65
G16W	2.3

Variant	protein stability index
G16M	3.04
G16S	3.48
G16C	3.37
V15Y	2.93
V15Q	3.62
V15G	3.1
V15D	3.49
V15M	3.01
V15A	3.62
V15E	3.77
V15H	3.29
V15K	3.58
V15I	3.84
V15L	3.44
V15F	2.73
V15T	3.7
V15S	3.84
V15R	3.28
V15C	3.16
V15P	3.63
V15W	1.75
V15N	3.88

Variants of: B2
Assay: as above
Details: c terminus: a fixed tail appended

Variant	protein stability index
A2S	1.9
A2F	1.88
A2P	2.16
A2W	2.02
A2N	1.04
A2Y	2.59
A2D	3.07
A2M	1.45
A2G	2.95
A2T	1.61
A2K	3.17
A2H	1
R8P	2.83
R8H	2.88
R8D	2.13
R8A	2.93
R8I	1.71
R8M	1.87
R8G	1.94
R8K	2.84
R8E	2.65
R8L	3.45
R8S	2.38
R8Q	1.59
F1Y	4.05
F1E	4.14

Variant	protein stability index
F1W	2.58
F1P	3.71
F1M	3.59
F1G	4.63
F1C	1.38
F1V	3.3
F1T	2.49
F1D	4.78
F1N	3.87
F1Q	3.77
F1K	3.54
F1S	3.79
F1I	2.65
Q4L	4.02
Q4M	1.65
Q4C	2.85
Q4I	2.27
Q4K	1.99
Q4T	2.06
Q4P	1.28
Q4Y	2.21
Q4F	1.98
Q4D	2
Q4N	1.69
Q4R	1.94
Q4E	1.84

Variant	protein stability index
Q4H	2.21
Q4S	2.6
P3A	1.05
P3V	1.95
P3W	2.66
P3S	1.61
P3F	1.7
P3I	1.72
P3Q	2.72
P3D	2.79
P3L	1.5
P3N	1.96
P3T	1.98
P3K	2.51
P3E	2.64
P3C	1.62
T5G	3.11
T5Y	2.78
T5Q	2.47
T5P	1.81
T5N	2.01
T5A	2.07
T5E	2.42
T5D	2.37
G6C	1.06
G6I	2.25

Variant	protein stability index
G6E	1.67
G6L	2.07
G6M	2.32
G6K	2.51
G6F	2.86
G6S	1.9
G6A	2.12
G6D	2.04
G6Y	1.86
G6T	2.51
G6V	2.13
G6P	1.95
G6Q	1.36
G6W	2.83
A7P	2.07
A7C	2.92
A7Q	1.31
A7H	3.46
A7I	1.79
A7T	2.69
A7D	1.59
A7K	1.53
A7E	1.77
A7M	1.77
A7F	2.41
A7L	2
